Source: patent US20190300590A1 (PROTAGONIST THERAPEUTICS, published 2019)
Like-named read-outs stand apart in the source and are kept apart here. Bridges are numbered along the chain shown (N, C = ends). Where no end group is shown, it is not given here. [ ]: non-standard residue; d: D form. AllylGly = C=CC[C@H](N)C(=O)O; DIG = diglycolic acid linker

Assays:
[1] = biological target: T1, IL-23R on DB cells (human, UniProt Q5VWK5 24-629); assay: cell-based or functional assay
T1 sequence (looked up): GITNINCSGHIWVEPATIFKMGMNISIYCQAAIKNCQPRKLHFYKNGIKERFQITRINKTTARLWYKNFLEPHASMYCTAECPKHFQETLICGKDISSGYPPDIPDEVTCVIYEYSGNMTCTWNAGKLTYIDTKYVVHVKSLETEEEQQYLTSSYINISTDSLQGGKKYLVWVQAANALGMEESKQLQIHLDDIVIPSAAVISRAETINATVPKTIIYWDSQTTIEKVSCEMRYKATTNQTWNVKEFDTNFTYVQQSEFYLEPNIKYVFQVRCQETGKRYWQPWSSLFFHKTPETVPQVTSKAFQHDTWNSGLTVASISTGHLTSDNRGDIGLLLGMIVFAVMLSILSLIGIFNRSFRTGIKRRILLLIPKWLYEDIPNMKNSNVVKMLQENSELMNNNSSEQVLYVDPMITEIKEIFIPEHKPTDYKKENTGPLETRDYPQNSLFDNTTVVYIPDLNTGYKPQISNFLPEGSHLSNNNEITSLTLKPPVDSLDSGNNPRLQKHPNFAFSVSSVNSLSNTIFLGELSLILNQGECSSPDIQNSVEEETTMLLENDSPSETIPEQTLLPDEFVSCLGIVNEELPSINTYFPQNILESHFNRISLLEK

[2] = biological target: T2, IL23R_huFC (human, UniProt Q5VWK5 24-353); assay: IL23-IL23R competitive binding ELISA
T2 sequence (looked up): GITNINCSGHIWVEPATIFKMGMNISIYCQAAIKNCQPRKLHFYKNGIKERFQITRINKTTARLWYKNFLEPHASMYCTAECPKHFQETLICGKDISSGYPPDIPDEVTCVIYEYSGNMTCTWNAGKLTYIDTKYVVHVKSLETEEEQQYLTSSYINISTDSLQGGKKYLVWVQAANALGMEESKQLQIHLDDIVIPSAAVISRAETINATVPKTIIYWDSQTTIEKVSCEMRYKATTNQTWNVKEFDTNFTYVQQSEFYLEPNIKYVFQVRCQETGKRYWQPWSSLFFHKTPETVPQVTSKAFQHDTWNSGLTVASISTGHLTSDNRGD

[3] = biological target: T3, IL23R_huFC (human, UniProt Q5VWK5 24-353); assay: human ELISA vs IL-23
T3 sequence (looked up): T2 sequence (looked up)

[4] = biological target: T4, IL-23R on human cells (IL-23R-expressing DB cells; human NK cells) (human, UniProt Q5VWK5 24-629); assay: cell-based or functional assay
T4 sequence (looked up): T1 sequence (looked up)

[5] = biological target: T4, IL-23R on human cells …; assay: cell-based or functional assay; remark: listed apart in the source
[6] = biological target: Rat IL-23R_huFC (rat); assay: rat ELISA vs IL-23
[7] = biological target: T3, IL23R_huFC; assay: human ELISA vs IL-23; remark: listed apart in the source
[8] = biological target: Rat IL-23R_huFC (rat); assay: rat ELISA vs IL-23; remark: listed apart in the source
[9] = biological target: T5, IL23R_huFC (human, UniProt Q5VWK5 24-353); assay: IL23-IL23R competitive ELISA, IC50 grade
T5 sequence (looked up): T2 sequence (looked up)

[10] = biological target: T5, IL23R_huFC; assay: IL23-IL23R competitive ELISA
[11] = biological target: T5, IL23R_huFC; assay: IL23-IL23R competitive ELISA, IC50 grade; remark: listed apart in the source
[12] = biological target: T3, IL23R_huFC; assay: human ELISA vs IL-23; remark: listed apart in the source

B1: [Ac-[Pen]-QTWQ-[Pen]-[Phe[4-(2-aminoethoxy)]-[2-Nal]-[α-Me-Leu]-QNN-NH2]2DIG (peptide)
peptide: XQTWQXFXLQNN
modifications: Ac; Pen-Pen disulfide; Phe[4-(2-aminoethoxy)]; 2-Nal; α-Me-Leu; NH2; DIG linker joins the two subunits
Question: What does the source list for B1?
Answer: pStat3 HTRF IC50 [1]: 10 to 25 nM; IC50 [2]: 10 to 25 nM

B2: [Ac-[Pen]-QTWQ-[Pen]-[Phe[4-(2-aminoethoxy)]-[2-Nal]-[α-Me-Leu]-QNN-NH2]2PEG25 (peptide)
peptide: XQTWQXFXLQNN
modifications: Ac; Pen-Pen disulfide; Phe[4-(2-aminoethoxy)]; 2-Nal; α-Me-Leu; NH2; PEG25 linker joins the two subunits
Question: What does the source list for B2?
Answer: pStat3 HTRF IC50 [1]: 10 to 25 nM; IC50 [2]: < 10 nM

B3: [Ac-Cyclo-[[Abu]-QTWQC]-[Phe(4-OMe)]-[2-Nal]-[α-MeLys+-ENG-NH2]2DIG (peptide)
peptide: XQTWQCFXKENG
modifications: not fully specified; as bracketed in name; thioether cyclo; DIG linker through a-MeLys
Question: For B3, which IC50 [3] is on record?
Answer: The IC50 was less than 10 nM.

Question: What about the “pStat3 HTRF IC50” value [4] of the same binder?
Answer: Its value is less than 10 nM.

Question: What about the “NK cell assay IC50 (IFNγ)” value [5] of the same binder?
Answer: The value was less than 25 nM.

Question: And the IC50 [6]?
Answer: The IC50 was 10 to 25 nM.

B4: [Ac-Cyclo-[[Abu]-QTWQC]-[Phe]4-(2-aminoethoxy)]]-[2-Nal]-[Aib]-QNG-NH2]2DIG (peptide)
peptide: XQTWQCFXXQNG
modifications: not fully specified; as bracketed in name; thioether cyclo; DIG linker through Phe[4-(2-aminoethoxy)]
Question: How did the IC50 [7] turn out when B4 was run?
Answer: Its IC50 is 25 to 100 nM.

B5: [Ac-[(D)Lys]-Cyclo-[[Abu]-QTWQC]-[Phe(4-OMe)]-[2-Nal]-[α-MeLys]-ENG-NH2]2 PEG25 (peptide)
peptide: KXQTWQCFXKENG
modifications: not fully specified; as bracketed in name; thioether cyclo; PEG25 linker through α-MeLys
Question: With B5 as the binder, how does the IC50 [3] read?
Answer: Its IC50 is less than 10 nM.

Question: And the “pStat3 HTRF IC50” value [4]?
Answer: The value was less than 10 nM.

Question: What about the IC50 [6] of the same binder?
Answer: Its IC50 is 10 to 25 nM.

B6: [Ac-[(D)Lys]-Cyclo-[[Abu]-QTWQC]-[Phe(4-OMe)]-[2-Nal]-[α-MeLeu]-ENG-NH2]2 DIG (peptide)
peptide: KXQTWQCFXLENG
modifications: not fully specified; as bracketed in name; thioether cyclo; DIG linker through (D)Lys
Question: For B6, which IC50 [3] is on record?
Answer: The IC50 was less than 10 nM.

Question: What about the “pStat3 HTRF IC50” value [4] of the same binder?
Answer: The value was less than 10 nM.

Question: What about the IC50 [8] of the same binder?
Answer: The IC50 was 25 to 100 nM.

Question: How did the IC50 [9] turn out when Ac-CADWVCYWHTK(DIG)G-OH (cysteine pairing not given here; also: dimer through DIG on Lys) [(Ac-CADWVCYWHTKG-OH)2DIG] was run?
Answer: Its IC50 is 1000 to 10000 nM.

Question: For H-CADWVCYWHTFG-NH2 (disulfide 1-6 (inferred)) [Hy-CADWVCYWHTFG-NH2], which IC50 [10] is on record?
Answer: Its IC50 is 500 to 1000 nM.

Question: And the IC50 [11]?
Answer: The IC50 was 100 to 1000 nM.

Question: Which IC50 [12] does the source give for [AllylGly]ADWV[AllylGly]YWHTFG (staple 1-6 (inferred)) [SEQ ID NO. 1000 peptide (drawing CHEM-US-00114)] here?
Answer: Its IC50 is roughly 20000 nM.

Question: For [AllylGly]ADWV[AllylGly]YWHTFG (staple 1-6 (inferred)) [SEQ ID NO. 1001 peptide (drawing CHEM-US-00115)], which IC50 [12] is on record?
Answer: The IC50 was roughly 30000 nM.
